Assay results published in paper doi:10.1101/2025.09.17.676191 (bioRxiv, 2025).

Target: the molecule itself
Assay: cryo-EM structure

B1: wild-type mouse TRPV3 channel (natural protein, UniProt Q8K424 1-791, looked up)
chain: MNAHSKEMAPLMGKRTTAPGGNPVVLTEKRPADLTPTKKSAHFFLEIEGFEPNPTVTKTSPPIFSKPMDSNIRQCLSGNCDDMDSPQSPQDDVTETPSNPNSPSANLAKEEQRQKKKRLKKRIFAAVSEGCVEELRELLQDLQDLCRRRRGLDVPDFLMHKLTASDTGKTCLMKALLNINPNTKEIVRILLAFAEENDILDRFINAEYTEEAYEGQTALNIAIERRQGDITAVLIAAGADVNAHAKGVFFNPKYQHEGFYFGETPLALAACTNQPEIVQLLMENEQTDITSQDSRGNNILHALVTVAEDFKTQNDFVKRMYDMILLRSGNWELETMRNNDGLTPLQLAAKMGKAEILKYILSREIKEKPLRSLSRKFTDWAYGPVSSSLYDLTNVDTTTDNSVLEIIVYNTNIDNRHEMLTLEPLHTLLHTKWKKFAKYMFFLSFCFYFFYNITLTLVSYYRPREDEDLPHPLALTHKMSWLQLLGRMFVLIWATCISVKEGIAIFLLRPSDLQSILSDAWFHFVFFVQAVLVILSVFLYLFAYKEYLACLVLAMALGWANMLYYTRGFQSMGMYSVMIQKVILHDVLKFLFVYILFLLGFGVALASLIEKCSKDKKDCSSYGSFSDAVLELFKLTIGLGDLNIQQNSTYPILFLFLLITYVILTFVLLLNMLIALMGETVENVSKESERIWRLQRARTILEFEKMLPEWLRSRFRMGELCKVADEDFRLCLRINEVKWTEWKTHVSFLNEDPGPIRRTADLNKIQDSSRSNSKTTLYAFDELDEFPETSV
stoichiometry N: 4
